# Source: patent US20180171002A1 (BERG, published 2018)
# T1: E.Coli-expressed partial FLNA (aa 1443-2131) (human, UniProt P21333 1443-2131)
# T1 construct: also called FLNA Partial; partial FLNA protein
# T1 sequence: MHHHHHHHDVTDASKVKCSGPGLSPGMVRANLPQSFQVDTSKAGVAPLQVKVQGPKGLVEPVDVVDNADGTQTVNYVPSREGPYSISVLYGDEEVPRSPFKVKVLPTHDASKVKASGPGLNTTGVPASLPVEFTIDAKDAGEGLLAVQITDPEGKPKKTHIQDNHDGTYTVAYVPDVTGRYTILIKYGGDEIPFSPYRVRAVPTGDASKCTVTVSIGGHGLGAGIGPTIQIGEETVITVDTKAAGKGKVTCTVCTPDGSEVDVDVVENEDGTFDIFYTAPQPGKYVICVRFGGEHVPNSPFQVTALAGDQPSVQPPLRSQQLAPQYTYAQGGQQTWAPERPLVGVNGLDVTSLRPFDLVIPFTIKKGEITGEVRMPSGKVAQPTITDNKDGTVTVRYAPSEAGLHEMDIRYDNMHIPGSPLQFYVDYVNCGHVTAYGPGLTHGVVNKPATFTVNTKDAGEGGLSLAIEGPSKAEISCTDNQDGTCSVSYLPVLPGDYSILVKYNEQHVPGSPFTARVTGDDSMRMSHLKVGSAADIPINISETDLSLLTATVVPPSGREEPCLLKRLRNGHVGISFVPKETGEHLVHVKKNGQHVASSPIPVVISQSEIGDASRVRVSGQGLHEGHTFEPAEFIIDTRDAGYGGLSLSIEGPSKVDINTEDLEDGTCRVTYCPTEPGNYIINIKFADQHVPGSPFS
# T2: E.Coli-expressed FLNC (aa 1438-2128) (Homo sapiens (Human), UniProt Q14315 1438-2128)
# T2 construct: also called Partial filamin C
# T2 sequence: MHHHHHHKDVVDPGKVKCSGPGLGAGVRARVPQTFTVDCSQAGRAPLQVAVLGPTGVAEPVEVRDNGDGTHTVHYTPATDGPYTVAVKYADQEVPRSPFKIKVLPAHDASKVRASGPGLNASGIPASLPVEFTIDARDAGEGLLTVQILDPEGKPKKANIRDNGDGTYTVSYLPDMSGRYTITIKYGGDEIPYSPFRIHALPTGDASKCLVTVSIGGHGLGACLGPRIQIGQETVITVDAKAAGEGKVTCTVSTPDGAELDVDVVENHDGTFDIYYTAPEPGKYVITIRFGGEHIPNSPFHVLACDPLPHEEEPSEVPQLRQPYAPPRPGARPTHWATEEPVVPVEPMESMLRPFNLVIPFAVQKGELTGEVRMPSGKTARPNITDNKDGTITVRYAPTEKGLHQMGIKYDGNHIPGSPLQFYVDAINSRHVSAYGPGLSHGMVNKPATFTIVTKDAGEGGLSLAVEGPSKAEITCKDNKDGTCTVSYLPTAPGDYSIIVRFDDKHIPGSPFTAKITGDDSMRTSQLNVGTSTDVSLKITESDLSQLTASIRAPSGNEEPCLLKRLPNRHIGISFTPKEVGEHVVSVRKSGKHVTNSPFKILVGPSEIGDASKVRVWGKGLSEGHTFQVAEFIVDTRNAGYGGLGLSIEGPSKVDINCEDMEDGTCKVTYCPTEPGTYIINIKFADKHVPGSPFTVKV
# What was measured:
# [1] = target: E.Coli-expressed partial FLNA (aa 1443-2131) (human) (UniProt P21333); experiment: ELISA, positive control
# [2] = target: T3, HEK293-expressed full length FLNA (UniProt: P21333) (human, UniProt P21333 2-2647); experiment: ELISA, positive control
# T3 construct: Full length protein; also called full length human FLNA protein; Full length filamin A
# T3 sequence (P21333 other isoform, or with tags, fused parts or gaps limits assumed): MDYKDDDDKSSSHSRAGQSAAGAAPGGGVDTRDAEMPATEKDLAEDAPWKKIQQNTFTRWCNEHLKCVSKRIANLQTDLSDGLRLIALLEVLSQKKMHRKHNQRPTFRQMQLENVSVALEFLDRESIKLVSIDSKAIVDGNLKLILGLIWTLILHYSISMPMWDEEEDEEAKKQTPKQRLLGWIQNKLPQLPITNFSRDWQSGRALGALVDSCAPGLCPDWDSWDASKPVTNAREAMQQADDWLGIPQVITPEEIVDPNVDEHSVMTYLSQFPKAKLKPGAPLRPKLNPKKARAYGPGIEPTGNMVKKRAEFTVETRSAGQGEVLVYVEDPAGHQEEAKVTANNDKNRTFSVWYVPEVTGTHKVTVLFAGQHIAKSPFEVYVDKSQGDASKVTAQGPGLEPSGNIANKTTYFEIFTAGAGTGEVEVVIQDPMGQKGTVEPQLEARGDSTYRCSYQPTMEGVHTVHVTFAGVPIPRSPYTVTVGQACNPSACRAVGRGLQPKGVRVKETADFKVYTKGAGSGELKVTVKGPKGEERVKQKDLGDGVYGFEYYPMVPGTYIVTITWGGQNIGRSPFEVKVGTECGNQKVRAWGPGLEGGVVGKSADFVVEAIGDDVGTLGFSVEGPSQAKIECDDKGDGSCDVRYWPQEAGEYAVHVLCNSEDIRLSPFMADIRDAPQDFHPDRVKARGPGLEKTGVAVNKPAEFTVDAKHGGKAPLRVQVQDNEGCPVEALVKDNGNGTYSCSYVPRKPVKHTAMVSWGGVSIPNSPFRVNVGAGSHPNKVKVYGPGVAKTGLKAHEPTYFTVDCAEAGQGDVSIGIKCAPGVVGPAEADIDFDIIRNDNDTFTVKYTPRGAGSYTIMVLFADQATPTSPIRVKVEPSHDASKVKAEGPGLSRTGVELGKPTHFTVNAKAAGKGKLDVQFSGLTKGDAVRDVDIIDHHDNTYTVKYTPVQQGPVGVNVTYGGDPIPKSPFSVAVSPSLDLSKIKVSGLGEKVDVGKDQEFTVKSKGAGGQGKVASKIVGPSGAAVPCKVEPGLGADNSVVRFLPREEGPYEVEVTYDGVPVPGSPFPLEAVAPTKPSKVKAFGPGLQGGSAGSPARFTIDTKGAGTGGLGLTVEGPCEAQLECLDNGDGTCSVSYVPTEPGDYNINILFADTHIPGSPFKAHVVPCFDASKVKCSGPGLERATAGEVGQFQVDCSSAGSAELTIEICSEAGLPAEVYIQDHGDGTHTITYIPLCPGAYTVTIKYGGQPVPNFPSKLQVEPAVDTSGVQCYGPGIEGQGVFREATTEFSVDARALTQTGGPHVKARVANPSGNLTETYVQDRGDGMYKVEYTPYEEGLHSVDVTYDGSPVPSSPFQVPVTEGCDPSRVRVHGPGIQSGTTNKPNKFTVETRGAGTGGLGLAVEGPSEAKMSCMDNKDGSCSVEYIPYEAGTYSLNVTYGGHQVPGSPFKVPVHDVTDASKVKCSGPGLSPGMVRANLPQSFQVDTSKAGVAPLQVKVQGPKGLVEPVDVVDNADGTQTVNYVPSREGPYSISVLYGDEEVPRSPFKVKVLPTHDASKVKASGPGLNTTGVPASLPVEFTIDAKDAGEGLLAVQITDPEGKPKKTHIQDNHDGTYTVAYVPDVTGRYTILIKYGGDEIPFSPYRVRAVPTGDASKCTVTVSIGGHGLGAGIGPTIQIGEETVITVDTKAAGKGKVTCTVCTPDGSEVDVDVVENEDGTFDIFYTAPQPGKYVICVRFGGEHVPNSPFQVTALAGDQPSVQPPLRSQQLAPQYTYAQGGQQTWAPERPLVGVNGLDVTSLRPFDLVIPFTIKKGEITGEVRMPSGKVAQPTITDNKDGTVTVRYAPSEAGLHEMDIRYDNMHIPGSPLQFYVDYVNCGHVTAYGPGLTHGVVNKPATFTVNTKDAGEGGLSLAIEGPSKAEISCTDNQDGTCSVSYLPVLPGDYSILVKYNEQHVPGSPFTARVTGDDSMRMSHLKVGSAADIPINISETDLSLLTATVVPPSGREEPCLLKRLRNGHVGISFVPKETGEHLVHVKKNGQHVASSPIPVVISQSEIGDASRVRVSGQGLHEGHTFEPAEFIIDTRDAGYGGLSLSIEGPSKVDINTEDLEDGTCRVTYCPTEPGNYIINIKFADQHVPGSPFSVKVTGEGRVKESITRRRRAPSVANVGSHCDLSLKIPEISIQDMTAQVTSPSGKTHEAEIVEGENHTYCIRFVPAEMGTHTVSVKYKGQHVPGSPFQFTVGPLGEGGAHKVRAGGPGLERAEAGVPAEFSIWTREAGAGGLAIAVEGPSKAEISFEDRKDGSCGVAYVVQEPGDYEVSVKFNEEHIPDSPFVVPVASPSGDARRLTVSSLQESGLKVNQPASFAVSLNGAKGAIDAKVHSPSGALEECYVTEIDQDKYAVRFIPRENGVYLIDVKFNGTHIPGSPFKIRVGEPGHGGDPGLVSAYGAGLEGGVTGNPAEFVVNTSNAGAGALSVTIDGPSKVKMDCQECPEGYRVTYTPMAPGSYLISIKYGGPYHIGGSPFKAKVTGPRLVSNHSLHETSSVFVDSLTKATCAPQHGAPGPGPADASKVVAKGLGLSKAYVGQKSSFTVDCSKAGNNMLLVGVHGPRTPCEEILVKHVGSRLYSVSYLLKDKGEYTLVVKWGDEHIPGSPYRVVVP
# [3] = target: E.Coli-expressed FLNC (aa 1438-2128) (Homo sapiens (Human)) (UniProt Q14315); experiment: ELISA, positive control
# [4] = target: E.Coli-expressed partial FLNA (aa 1443-2131) (human) (UniProt P21333); experiment: ELISA, negative control
# [5] = target: T3, HEK293-expressed full length FLNA …; experiment: ELISA, negative control
# [6] = target: HEK293-expressed full length FLNB (Homo sapiens (Human)) (UniProt O75369); experiment: ELISA, negative control
# [7] = target: E.Coli-expressed partial FLNB (aa 1416-2089) (Homo sapiens (Human)) (UniProt O75369); experiment: ELISA, negative control
# Chain of E.Coli-expressed partial FLNB (aa 1416-2089) (Homo sapiens (Human)) (O75369 1416-2089, tags left off): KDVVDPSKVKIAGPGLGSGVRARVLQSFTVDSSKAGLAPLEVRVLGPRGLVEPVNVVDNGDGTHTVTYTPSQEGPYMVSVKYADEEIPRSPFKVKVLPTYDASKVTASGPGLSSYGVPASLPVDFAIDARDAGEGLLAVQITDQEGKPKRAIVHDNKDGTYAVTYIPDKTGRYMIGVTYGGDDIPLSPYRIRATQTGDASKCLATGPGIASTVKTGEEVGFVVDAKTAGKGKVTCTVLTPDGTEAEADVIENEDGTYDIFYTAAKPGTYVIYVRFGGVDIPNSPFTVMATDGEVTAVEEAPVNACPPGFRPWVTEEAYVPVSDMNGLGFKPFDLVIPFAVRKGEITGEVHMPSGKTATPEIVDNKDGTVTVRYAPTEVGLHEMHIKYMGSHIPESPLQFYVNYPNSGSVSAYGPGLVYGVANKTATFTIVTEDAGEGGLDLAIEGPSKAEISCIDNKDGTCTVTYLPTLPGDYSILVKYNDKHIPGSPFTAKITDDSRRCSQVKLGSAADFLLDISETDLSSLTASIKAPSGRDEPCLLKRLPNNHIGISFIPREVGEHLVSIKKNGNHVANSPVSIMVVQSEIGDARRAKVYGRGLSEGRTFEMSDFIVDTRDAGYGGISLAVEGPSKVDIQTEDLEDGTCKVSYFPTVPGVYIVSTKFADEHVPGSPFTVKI
# [8] = target: E.Coli-expressed FLNC (aa 1438-2128) (Homo sapiens (Human)) (UniProt Q14315); experiment: ELISA, negative control
# [9] = target: T3, HEK293-expressed full length FLNA …; experiment: ELISA, hybridoma supernatant on protein
# Procedure: (§1) Next, supernatants from clone 2C12, 3F4, and 6E3 were tested to bind the above proteins by ELISA. FLNA proteins were tested for specificity, while homologous proteins FLNB and FLNC from the same family were tested for cross-reactivity. 10% pooled normal human serum was also included for any unexpected non-specific binding.
# [10] = target: T1, E.Coli-expressed partial FLNA (aa …); experiment: ELISA, hybridoma supernatant on protein
# Procedure: as §1
# [11] = target: T2, E.Coli-expressed FLNC (aa 1438-2128); experiment: ELISA, hybridoma supernatant on protein
# Procedure: as §1
# [12] = target: T1, E.Coli-expressed partial FLNA (aa …); experiment: BLI (Octet), antibody on AMC anti-mIgG Fc capture sensor, FLNA Partial at 100 nM
# Procedure: Kinetics studies with ForteBio Bio-Layer Interferometry (BLI) technology were carried out. BLI is a label-free technology for measuring biomolecular interactions. It is an optical analytical technique that analyzes the interference pattern of white light reflected from two surfaces: a layer of immobilized protein on the biosensor tip, and an internal reference layer. Any change in the number of molecules bound to the biosensor tip causes a shift in the interference pattern that can be measured in real-time. The Octet analysis results are shown as below in Table 3.
ELISA test result (signal) [1],ELISA test result (signal) [2],ELISA test result (signal) [3],ELISA test result (signal) [4],ELISA test result (signal) [5],ELISA test result (signal) [6],ELISA test result (signal) [7],ELISA test result (signal) [8],ELISA test result (signal) [9],ELISA test result (signal) [10],ELISA test result (signal) [11],Kd [12],Response [12],koff [12],kon [12],Molecule
–,–,–,0.072,0.043,0.072,0.069,0.042,–,–,–,–,–,–,–,Neg ctl (negative control of the ELISA of Table 2)
–,–,–,–,–,–,–,–,2.2,2.57,0.041,4.02 nM,0.33,0.000784 s⁻¹,195000 M⁻¹ s⁻¹,"anti-FLNA murine monoclonal antibody 6E3 (antibody, IgG1, V domains shown, also called clone 6E3; mab 6E3) VH: QVQLQQSGAELMKPGASVKLSCKATGYTFTGYWIEWVKQRPGHGLEWIGEILPGNGSTNCNEKFKGKATFTATTSSNTAYMQLSSLTTEDSAIYYCTTVSYWGQGTTLTVSS VL: DVVMTQTPLSLPVSLGDQASISCRSSQSLVHSNGNTYLHWYLQKPGQSPNLLIYKVSNRFSGVPDRFTGSGSGTDFTLKISRVEAEDLGVYFCSQSTHVPFTFGSGTKLEIK"

# Second part, the molecule before the results:
Molecule,ELISA test result (signal) [1],ELISA test result (signal) [2],ELISA test result (signal) [3],ELISA test result (signal) [4],ELISA test result (signal) [5],ELISA test result (signal) [6],ELISA test result (signal) [7],ELISA test result (signal) [8],ELISA test result (signal) [9],ELISA test result (signal) [10],ELISA test result (signal) [11],Kd [12],Response [12],koff [12],kon [12]
Pos ctl (positive control of the ELISA of Table 2),3.85,3.09,1.7,–,–,–,–,–,–,–,–,–,–,–,–
"anti-FLNA murine monoclonal antibody 2C12 (antibody, IgG1, V domains shown, also called clone 2C12) VH: QVQLKQSGPGLVQPSQSLSITCTVSGFSLTNYGVHWVRQSPGKGLEWLGVIWRGGSTDYNAAFMSRLSITKDNSKSQVFFKMNSLQADDTAIYFCALRGNYVHYYLMDYWGQGTSVTVSS VL: DIQVTQTPSSLSASLGDRVTISCRASQDISNYLNWYQQKPDGTVKLLIYYTSRLHSGVPSRFSGSGSGTDYSLTISNLDQEDIATYFCQQGNTLPPTFGGGTNLEIK",–,–,–,–,–,–,–,–,1.87,3.32,0.044,4.82 nM,0.222,0.000381 s⁻¹,79000 M⁻¹ s⁻¹
"anti-FLNA murine monoclonal antibody 3F4 (antibody, IgG2b, V domains shown, also called clone 3F4) VH: EVQLQESGPGLAKPSQTLSLTCSVTGYSITSNYWNWIRKFPGNKLEYMGYISFSGSTYYNPSLKSRISITRDTSKNQYYLQLNSVTTEDTATYYCARWNYYAMDYWGQGTSVTVSS VL: DFLLTQSPAILSVSPGERVSFSCRASQSIGTNIHWYQQRTNGSPRLLIKFASESISGIPSRFSGSGSGTDFTLTINSVESEDIADYYCQQSNSWPYTFGGGTKLEIK",–,–,–,–,–,–,–,–,2.35,3.04,0.042,0.999 nM,0.283,0.000804 s⁻¹,805000 M⁻¹ s⁻¹
